Measured values: the nanobody polyreactivity screen of Harvey et al. (2022)

test: yeast display, Sf9 membrane polyspecificity reagent, FACS + sequencing; frameworks hold sequencing errors
Outline: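 Galactose induction of a Saccharomyces cerevisiae BJ5465 synthetic nanobody display library ran 36–48 hours. The cells were then stained for 1 hour at 4 °C with 10% biotinylated, detergent-solubilized Sf9 membrane reagent, pulled down on streptavidin microbeads and FACS-sorted into low and high (top ~1%) gates on expression and reagent-binding fluorescence. Labels for polyreactivity follow the gate of origin.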

Sequence	polyreactivity (PSR sort gate)
QVQLVESGGGLVQAGGSLRLSCAASGRIYNGNAMGWYRQAPGKERELVAAITSDGSTYADSVKGRFTISRDNAKNTVYLHMNSLKPEATADYYCATDDPLAYGSFGPYQPYDYWGQGTQVTVSS	low polyreactivity
QVQLVESGGGLVQAGGSLRLSCAASGRIYNPNGMGWYRQAPGKERELVAVITRSGTSTYYADSVKGRFTISRDNAKNTVYLQMNSLKPEDTAVYYCNAGKKYVDYGGPSSRYYWGQGTQVTVSS	low polyreactivity
QVQLVESGGGLVQAGGSLRLSCAASGRIYRDYAMGWYRQAPGKERELVATITWSGATTYYADSVKGRFTISRDNAKNTVYLQMNSLKPEDTAVYYCAKVYPRFYTFGEYNYWGQGTQVTVSS	low polyreactivity
QVQLVESGGGLVQAGGSLRLSCAASGRIYSQYDMGWYRQAPGKESELVAAISGGVGTNYADSVKGRFTISRDNAKNTVYLQMNSLKPEDSAVYYCAADVGYLGRSRGYPSDDYDYWGQGTQVTVSS	low polyreactivity
QVQLVESGGGLVQAGGSLRLSCAASGRIYSVYAMGWYRQAPGKERELVAAIRSGDRTNYADSVKGRFTISRDNAKNTVYLQMNSLKPEDTAVYYCAAVQRPYYYWGQGTQVTVSS	high polyreactivity
QVQLVESGGGLVQAGGSLRLSCAASGRIYVNAMGWYIQAPGKERELVAAIRSGGSTNYADSVKGRFTISRDNAKNTVYLQMNSLKPEDTAVYYCNARRRDYRHWYDYWGQGTQVTVSS	high polyreactivity
QVQLVESGGGLVQAGGSLRLSCAASGRIYWNDMGWYIQAPGKERELVAAISWGGDRTYYADSVKGRFTISRDNAKNTVYLQMNSLKPEDTSVYYCNAPGYLTYDHSYDYWGQGTQVTVSS	low polyreactivity
QVQLVESGGGLVQAGGSLRLSCAASGRIYWNTMGWYRQAPGKERELVASISTGGGRTYYADSVKGRFTISRDNAKNTVYLQMNSLKPEDTAVYYCAVRSYGHGFDYWGQGTQVTVSS	high polyreactivity
QVQLVESGGGLVQAGGSLRLSCAASGRIYWYYAMGWYRQAPGKERELVATISYGGGNTYYADTVKVRFTISRDNAKNTVYLQMNSLNPEDTAVYYCARVPYAYLPYKPFQQYSYDYWGQGTQVTVSS	high polyreactivity
QVQLVESGGGLVQAGGSLRLSCAASGRKLSWNTMGWYRQAPGKETELVACITQNVGSTYYADSVKGRFTISRDNAKNTVYIQMKSLKPEDTAVYYCAAKRLSWHRYGYWGQGTQETVSS	low polyreactivity
QVQLVESGGGLVQAGGSLRLSCAASGRNFAPNAMGWYRQAPGKERELVAAISGSGTSTYYADSVKGRFTISRDNAKNTVYLQMNSLKPEDTAVYYCAKSARGRRGGFDYWGQGTQVTVSS	low polyreactivity
QVQLVESGGGLVQAGGSLRLSCAASGRNFEIYAMGWYRQAPGKERELVAAISWRGVSTYYADSVKGRFTISRDNAKNTVYLQMNSLKPEDTAVYYCNKDVDYFWYVEYDYWGQGTQVTVSS	low polyreactivity
QVQLVESGGGLVQAGGSLRLSCAASGRNFEQYAMGWYRQAPGKERELVAAISGSGGSTFYADSVKGRFTISRDNAKNTVYVQMNRLKPEDTAVYYCNAPGDGYLYDHTYDYWGQGTQVTVSS	low polyreactivity
QVQLVESGGGLVQAGGSLRLSCAASGRNFEVYTMGWYRQAPGTERELVDAIDRSTGSTYYADSVKGRFTISRDNAKNTVYLQMNSLKPEDTAVYDCAARGTFLGTRPLGRFDYWGQGTQVTVSS	low polyreactivity
QVQLVESGGGLVQAGGSLRLSCAASGRNFFYALGWYRQAPGKERELVASITTSGTSTYYADSVKGRFTISRDNAKNIVYLQMNSLKPEDTAVYYCNATSNSIRWYDLYYWGQGTKVTVSS	low polyreactivity
QVQLVESGGGLVQAGGSLRLSCAASGRNFGYYTMGWYRQAPGKERELVAAITSSGGRTYYADSVKGRFTISRDNAKNTVYLQMNSLIPEVTAVYYCNKVTYGYAYWRYDGYYYWGQGTQVTVSS	low polyreactivity
QVQLVESGGGLVQAGGSLRLSCAASGRNFLSYMGWYRQAPGKERELVAISRSGTSTYYADSVKGRFTISRDNAKNTVYLQMNSLKPEDTAVYYCAAEVLRDGWWGYYYWGQGTQVTVSS	high polyreactivity
QVQLVESGGGLVQAGGSLRLSCAASGRNFPRNVMGWYRQAPGKERELVAAITGSGSSTYYADSVKGRFTISRDIEKNTVYLQMNSLQPEDTAVYYCATIWRFKLGDYWGQGTQVTVSS	high polyreactivity
QVQLVESGGGLVQAGGSLRLSCAASGRNFPVYAMGCYRQAPGKERELVAAMTRSDDSTYYADSVKGRFTISRDNAKNTVYLQMNSLKPEDTAVYYCAADVEGWTVESDVYRVGYDFWGQGTQVTVSS	low polyreactivity
QVQLVESGGGLVQAGGSLRLSCAASGRNFPYYAMGWSRQAPGKERELVADISSSGGRTYYADSVKGRFTTSRDNAKNTVYLQMNSLKPEDTAVYYCNAESTYYPSGEDYWGQGTQVTVSS	low polyreactivity

Sequence	polyreactivity (PSR sort gate)
QVQLVESGGGLVQAGGSLRLSCAASGRNFRVYAMGWYRQAPGKESELVAAITSGGTTYADSVKGRFTISRDNAKNTGYLQMNSLQPEDTAVYYCAARYYIHRGYDYDYWGQGTQVTVSS	high polyreactivity
QVQLVESGGGLVQAGGSLRLSCAASGRNFSGNTMGWYRQAPGKERELVAAITGRGGSTYYADSVKGRFTISRDNAKNTVYLQMNSLKPEDNAVYYCAALRYTFAGRFDYWGQGTQVTVSS	high polyreactivity
QVQLVESGGGLVQAGGSLRLSCAASGRNFYLYAMGWYRPAPGKERELVAAITRRGGSTYYADSVKGRFTISRDNAKNTVYLQMNSLKPEDTAVYYCAADRPGTGYSDYDYWGQGTQVTVSS	high polyreactivity
QVQLVESGGGLVQAGGSLRLSCAASGRNFYSYSMGWYRQEPGKERELVATITSNDGGTDYADSVKGRFTISRDNAKNTVYLQMNSLKPEDTAVYYCNAEDVLPEVGNRYNYWGQGTQVTVSS	low polyreactivity
QVQLVESGGGLVQAGGSLRLSCAASGRNFYYYAMGWYRQAPGKERELVATITGGGRTYYADSVKGRFTISRDNAKNTVYLQMHSLHPEDTAVYYCAAQYGGLSYRYDYWGQGTQVTVSS	high polyreactivity
QVQLVESGGGLVQAGGSLRLSCAASGRPFASYALGWYREAPGKERELVAVITRGVRTYYADSVKGRFTISRDNAKNTVYLQMNSLKPEDTAVYSCAKERYNANYDTSLYDYWGQGTQVTVSS	low polyreactivity
QVQLVESGGGLVQAGGSLRLSCAASGRPFGGNTMGWYRQAPGKERALVAAISFSGGSTYYADSVKGRFSSSRDNAKNTVYFQMNSLKPEDTAVYYCARDDYSHSFLTYDYWGQGTQVTVSS	low polyreactivity
QVQLVESGGGLVQAGGSLRLSCAASGRPFGRYAMGWYRPAPGKERELVAAITGSGGSTYYADSVKGRYTMSRDNAKNTVYLQMNSLKPEDTAVYYCAAPQRYYYTAMGYWGQGTQVTVSS	high polyreactivity
QVQLVESGGGLVQAGGSLRLSCAASGRPFRLNGMGWYRQAPGKERELVAAITWSGGRTYYADSVKGRFTISRDNAKTTVYLQMNSLKPEDTAVYDCAADYRYKSHWWYRRFDYWGQGTQVTVSS	high polyreactivity
QVQLVESGGGLVQAGGSLRLSCAASGRSFDVNAMGWYRQAPGKERELVAAISTRGGGTYYADSVKGRFTISRDNAKTTVYLQMNSLKPEDTAVYYCNVVRRYGGRGFDYWGQGTQVTVSS	low polyreactivity
QVQLVESGGGLVQAGGSLRLSCAASGRSFDWDVLGWYSQVPGKERELVAAIDDSGGSTYYADSVKGRFTISRDNAKNTVYLQMNSLKPEDTAVYYCAAASYEYALDEHMDYWGQGTQVTGSS	low polyreactivity
QVQLVESGGGLVQAGGSLRLSCAASGRSFKKYAMGWYRQAPGKERELVAAITASGGSTYYADSVKGRYTISRDNAKNTVYLQMNSLTPEDTAVYYCAAYAYGVWHSQDGGNYWGQGTQVTVSS	low polyreactivity
QVQLVESGGGLVQAGGSLRLSCAASGRSFSPYAMGWYRQAPGKERELVAAISYDDGITYYADSVKGRFTISRDTAKNTVYLQMNSLKPEDTAVYYCAADSVTRPAGDYWGQGTQVTVSS	low polyreactivity
QVQLVESGGGLVQAGGSLRLSCAASGRSFSYNAMGWYRQAPGKERELVAAISYGGGRTYYADSVKGRFTISRDNAKNTVYLQMNSLKPEDTAVYYCNRYGRQYDFYYWGQGTQVSVSS	high polyreactivity
QVQLVESGGGLVQAGGSLRLSCAASGRSFTGNAMGWYRQAPGKERELVAAISWRGARTYYADSVKGRFTISRDNAKNTVYFQMNSLKPVDTGVYYCAAAYRGYARHDYWGQGTQVTVSS	high polyreactivity
QVQLVESGGGLVQAGGSLRLSCAASGRSFTGYAMGWYRQATGKERELVASISDSGASTYYADSVKGRFTISRDNAKNTVYLLMNSLKPEDTAVFYCAASYPSYNWSVGDDDYWGQGTQVTVSS	low polyreactivity
QVQLVESGGGLVQAGGSLRLSCAASGRSFYLYAMGWYRQAPGKERELVASISWNGGSTYYADSVKGRFTISRDNAKNTVYLQMNSLKPEDTAVYYCATDSHRSRLNRPYQLFPAYYYWGQGTQVTVSS	low polyreactivity
QVQLVESGGGLVQAGGSLRLSCAASGRSFYRYVMGWYRQAPGTERELVAAMTWSGGSTYYADSVKGRFTISRDNAKNTVYLQMNSLKPEDTAVYYCAADWSTWGVDYWGQGTQVTVSS	low polyreactivity
QVQLVESGGGLVQAGGSLRLSCAASGRSIKYYAMGWYRQAPGKERELVAAIRSTGGSTYYADSVKGRFTISRDNAKNTVYLQMNSLKPEDTAVYYCNARRYPRYVFSRYVYWGQGTQVNVSS	high polyreactivity
QVQLVESGGGLVQAGGSLRLSCAASGRTCGGYAMGWYRQEPGNERELVAAISYRGARTYYADSVKGRFTISRDNAKNTVYLQMNSRKPEDTAVYYCAASRPGLRTPGQMGYWGQGTQVTVSS	high polyreactivity
